# Data taken from IntAct's records for PubMed 31515488.
# B1: Adiponectin (Homo sapiens), Q15848 (parent)
# chain: MLLLGAVLLLLALPGHDQETTTQGPGVLLPLPKGACTGWMAGIPGHPGHNGAPGRDGRDGTPGEKGEKGDPGLIGPKGDIGETGVPGAEGPRGFPGIQGRKGEPGEGAYVYRSAFSVGLETYVTIPNMPIRFTKIFYNQQNHYDGSTGKFHCNIPGLYYFAYHITVYMKDVKVSLFKKDKAMLFTYDQYQENNVDQASGSVLLHLEVGDQVWLQVYGEGERNGLYADNDNDSTFTGFLLYHDTN
# B2: Protein LDOC1 (Homo sapiens), O95751 (parent)
# chain: MVDELVLLLHALLMRHRALSIENSQLMEQLRLLVCERASLLRQVRPPSCPVPFPETFNGESSRLPEFIVQTASYMLVNENRFCNDAMKVAFLISLLTGEAEEWVVPYIEMDSPILGDYRAFLDEMKQCFGWDDDEDDDDEEEEDDY
# partner: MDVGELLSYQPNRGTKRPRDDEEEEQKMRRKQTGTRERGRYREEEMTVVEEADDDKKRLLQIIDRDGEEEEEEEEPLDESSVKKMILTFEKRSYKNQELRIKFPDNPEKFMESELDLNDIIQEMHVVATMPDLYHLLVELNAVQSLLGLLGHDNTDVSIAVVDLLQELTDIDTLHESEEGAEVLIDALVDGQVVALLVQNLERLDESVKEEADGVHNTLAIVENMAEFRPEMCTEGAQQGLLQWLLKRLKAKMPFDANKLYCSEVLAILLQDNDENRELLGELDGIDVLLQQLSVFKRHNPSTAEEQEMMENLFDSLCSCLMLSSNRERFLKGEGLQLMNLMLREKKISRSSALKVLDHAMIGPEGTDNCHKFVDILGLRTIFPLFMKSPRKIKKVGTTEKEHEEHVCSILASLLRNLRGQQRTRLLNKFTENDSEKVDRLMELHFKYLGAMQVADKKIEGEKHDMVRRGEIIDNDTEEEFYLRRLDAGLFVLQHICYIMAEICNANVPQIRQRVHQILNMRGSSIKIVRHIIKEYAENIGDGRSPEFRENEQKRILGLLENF
# B3: Isoform 1 of Mothers against decapentaplegic homolog 3 (Homo sapiens), P84022-1 (parent)
# chain: MSSILPFTPPIVKRLLGWKKGEQNGQEEKWCEKAVKSLVKKLKKTGQLDELEKAITTQNVNTKCITIPRSLDGRLQVSHRKGLPHVIYCRLWRWPDLHSHHELRAMELCEFAFNMKKDEVCVNPYHYQRVETPVLPPVLVPRHTEIPAEFPPLDDYSHSIPENTNFPAGIEPQSNIPETPPPGYLSEDGETSDHQMNHSMDAGSPNLSPNPMSPAHNNLDLQPVTYCEPAFWCSISYYELNQRVGETFHASQPSMTVDGFTDPSNSERFCLGLLSNVNRNAAVELTRRHIGRGVRLYYIGGEVFAECLSDSAIFVQSPNCNQRYGWHPATVCKIPPGCNLKIFNNQEFAALLAQSVNQGFEAVYQLTRMCTIRMSFVKGWGAEYRRQTVTSTPCWIELHLNGPLQWLDKVLTQMGSPSIRCSSVS
# partner: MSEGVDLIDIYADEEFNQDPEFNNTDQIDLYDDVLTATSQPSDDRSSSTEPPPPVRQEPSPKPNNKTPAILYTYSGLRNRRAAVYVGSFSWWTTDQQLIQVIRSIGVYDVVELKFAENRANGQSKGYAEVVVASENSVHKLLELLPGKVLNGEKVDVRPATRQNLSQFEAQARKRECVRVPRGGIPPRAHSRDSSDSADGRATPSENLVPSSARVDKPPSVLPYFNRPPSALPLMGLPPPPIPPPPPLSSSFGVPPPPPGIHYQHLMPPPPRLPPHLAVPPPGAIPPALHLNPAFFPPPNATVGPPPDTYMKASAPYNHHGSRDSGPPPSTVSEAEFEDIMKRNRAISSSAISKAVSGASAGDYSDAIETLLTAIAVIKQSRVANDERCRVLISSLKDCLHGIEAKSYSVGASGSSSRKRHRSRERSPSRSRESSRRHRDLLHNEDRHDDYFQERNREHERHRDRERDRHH
# B4: Golgin-45 (Homo sapiens), Q9H2G9 (parent)
# chain: MTTKNLETKVTVTSSPIRGAGDGMETEEPPKSVEVTSGVQSRKHHSLQSPWKKAVPSESPGVLQLGKMLTEKAMEVKAVRILVPKAAITHDIPNKNTKVKSLGHHKGEFLGQSEGVIEPNKELSEVKNVLEKLKNSERRLLQDKEGLSNQLRVQTEVNRELKKLLVASVGDDLQYHFERLAREKNQLILENEALGRNTAQLSEQLERMSIQCDVWRSKFLASRVMADELTNSRAALQRQNRDAHGAIQDLLSEREQFRQEMIATQKLLEELLVSLQWGREQTYSPSVQPHSTAELALTNHKLAKAVNSHLLGNVGINNQKKIPSTVEFCSTPAEKMAETVLRILDPVTCKESSPDNPFFESSPTTLLATKKNIGRFHPYTRYENITFNCCNHCRGELIAL
# partner: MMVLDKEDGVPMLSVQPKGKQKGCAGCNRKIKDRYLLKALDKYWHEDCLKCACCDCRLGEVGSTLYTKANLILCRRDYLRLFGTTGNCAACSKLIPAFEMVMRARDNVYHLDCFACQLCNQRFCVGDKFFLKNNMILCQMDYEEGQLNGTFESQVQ
# B5: Transmembrane protein 140 (Homo sapiens), Q9NV12 (parent)
# chain: MAGPRPRWRDQLLFMSIIVLVIVVICLMFYALLWEAGNLTDLPNLRIGFYNFCLWNEDTSTLQCHQFPELEALGVPRVGLGLARLGVYGSLVLTLFAPQPLLLAQCNSDERAWRLAVGFLAVSSVLLAGGLGLFLSYVWKWVRLSLPGPGFLALGSAQALLILLLIAMAVFPLRAERAESKLESC
# partner: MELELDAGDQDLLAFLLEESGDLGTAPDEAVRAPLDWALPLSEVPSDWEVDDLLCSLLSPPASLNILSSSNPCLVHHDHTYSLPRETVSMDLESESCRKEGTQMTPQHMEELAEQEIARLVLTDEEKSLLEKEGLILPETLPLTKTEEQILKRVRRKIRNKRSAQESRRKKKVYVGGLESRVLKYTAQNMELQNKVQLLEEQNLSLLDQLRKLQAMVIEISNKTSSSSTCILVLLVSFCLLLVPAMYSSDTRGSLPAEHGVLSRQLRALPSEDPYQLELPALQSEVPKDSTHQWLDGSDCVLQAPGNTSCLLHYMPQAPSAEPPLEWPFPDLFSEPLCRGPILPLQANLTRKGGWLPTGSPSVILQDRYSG
# B6: Zinc finger protein RFP (Homo sapiens), P14373 (parent)
# chain: MASGSVAECLQQETTCPVCLQYFAEPMMLDCGHNICCACLARCWGTAETNVSCPQCRETFPQRHMRPNRHLANVTQLVKQLRTERPSGPGGEMGVCEKHREPLKLYCEEDQMPICVVCDRSREHRGHSVLPLEEAVEGFKEQIQNQLDHLKRVKDLKKRRRAQGEQARAELLSLTQMEREKIVWEFEQLYHSLKEHEYRLLARLEELDLAIYNSINGAITQFSCNISHLSSLIAQLEEKQQQPTRELLQDIGDTLSRAERIRIPEPWITPPDLQEKIHIFAQKCLFLTESLKQFTEKMQSDMEKIQELREAQLYSVDVTLDPDTAYPSLILSDNLRQVRYSYLQQDLPDNPERFNLFPCVLGSPCFIAGRHYWEVEVGDKAKWTIGVCEDSVCRKGGVTSAPQNGFWAVSLWYGKEYWALTSPMTALPLRTPLQRVGIFLDYDAGEVSFYNVTERCHTFTFSHATFCGPVRPYFSLSYSGGKSAAPLIICPMSGIDGFSGHVGNHGHSMETSP
# partner: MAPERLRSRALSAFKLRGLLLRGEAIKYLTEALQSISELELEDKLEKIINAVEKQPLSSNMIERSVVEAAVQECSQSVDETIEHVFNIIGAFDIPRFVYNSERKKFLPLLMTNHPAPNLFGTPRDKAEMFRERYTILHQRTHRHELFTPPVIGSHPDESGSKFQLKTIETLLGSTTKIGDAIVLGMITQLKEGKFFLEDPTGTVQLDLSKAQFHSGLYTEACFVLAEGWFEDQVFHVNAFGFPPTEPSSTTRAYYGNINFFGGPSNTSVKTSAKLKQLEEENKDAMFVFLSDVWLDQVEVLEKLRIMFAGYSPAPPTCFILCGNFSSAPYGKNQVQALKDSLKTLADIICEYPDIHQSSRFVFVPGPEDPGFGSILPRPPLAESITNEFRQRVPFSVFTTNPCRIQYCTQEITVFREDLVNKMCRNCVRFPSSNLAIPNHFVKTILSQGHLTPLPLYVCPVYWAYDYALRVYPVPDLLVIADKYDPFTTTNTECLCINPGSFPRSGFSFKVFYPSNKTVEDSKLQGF
# Variants of: B1
# Details: with sgta_human SGTA
row,Variant,effect of a mutation on the interaction
1,Y111H,with no effect

# Variants of: B2
# Details: with ctbl1_human CTNNBL1, Q8WYA6
row,Variant,effect of a mutation on the interaction
1,L12H,disrupting interaction strength

# Variants of: B3
# Details: with cpsf7_human CPSF7, Q8N684
row,Variant,effect of a mutation on the interaction
1,P393L,disrupting interaction strength

# Variants of: B4
# Details: with rbtn1_human LMO1, P25800
row,Variant,effect of a mutation on the interaction
1,H45R,with no effect
2,Q40R,with no effect

# Variants of: B5
# Details: with creb3_human CREB3, O43889
row,Variant,effect of a mutation on the interaction
1,A112E,with no effect

# Variants of: B6
# Details: with dpoe2_human POLE2, P56282
row,Variant,effect of a mutation on the interaction
1,N355S,with no effect
